In data set [1] the target is T1, PhuS (Pseudomonas aeruginosa PAO1, UniProt O68880 1-354). Kind of data set: fluorescence anisotropy; apo-PhuS; FA: 20 mM Tris-HCl pH 8.0, 100 mM NaCl, 0.05 mg/ml BSA, 10 nM DNA (Fur: 10 mM bis-Tris borate pH 7.5, 40 mM KCl, 0.1 mM MnSO4, 0.1 mg/ml BSA, 10% glycerol), temperature not stated; EMSA: 100 mM Tris pH 8.0, 500 mM NaCl, 10% glycerol, 10 ng/ml salmon sperm DNA, 37 C, 30 pM DNA. The settings on record: protein: recombinant; tags: none; label: 5'-6FAM; blunt. (In general: Polarisation of emitted light reports the rotation of a fluorescent probe.)

The target in data set [2] is T1, PhuS. Kind of data set: fluorescence anisotropy; apo-PhuS; much smaller anisotropy change; FA: 20 mM Tris-HCl pH 8.0, 100 mM NaCl, 0.05 mg/ml BSA, 10 nM DNA (Fur: 10 mM bis-Tris borate pH 7.5, 40 mM KCl, 0.1 mM MnSO4, 0.1 mg/ml BSA, 10% glycerol), temperature not stated; EMSA: 100 mM Tris pH 8.0, 500 mM NaCl, 10% glycerol, 10 ng/ml salmon sperm DNA, 37 C, 30 pM DNA. The settings on record: protein: recombinant; tags: none; label: 5'-6FAM; blunt.

The next data set has as its target T2, Fur (Pseudomonas aeruginosa, UniProt Q03456 1-134).
T2 sequence: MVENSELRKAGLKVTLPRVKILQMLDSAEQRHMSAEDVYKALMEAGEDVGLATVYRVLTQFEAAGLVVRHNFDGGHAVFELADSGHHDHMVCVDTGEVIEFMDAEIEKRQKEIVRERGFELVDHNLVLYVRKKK
Kind of data set: fluorescence anisotropy; 0.1 mM MnSO4; bis-Tris borate pH 7.5, 40 mM KCl; FA: 20 mM Tris-HCl pH 8.0, 100 mM NaCl, 0.05 mg/ml BSA, 10 nM DNA (Fur: 10 mM bis-Tris borate pH 7.5, 40 mM KCl, 0.1 mM MnSO4, 0.1 mg/ml BSA, 10% glycerol), temperature not stated; EMSA: 100 mM Tris pH 8.0, 500 mM NaCl, 10% glycerol, 10 ng/ml salmon sperm DNA, 37 C, 30 pM DNA. As to conditions: protein: recombinant; tags: GST removed with thrombin (pGEX-2T); chain copies: 2; label: 5'-6FAM; blunt.

The target of a further data set is PhuS H212R (Pseudomonas aeruginosa PAO1, UniProt O68880 1-354, H212R). Description: fluorescence anisotropy; apo-PhuS H212R; FA: 20 mM Tris-HCl pH 8.0, 100 mM NaCl, 0.05 mg/ml BSA, 10 nM DNA (Fur: 10 mM bis-Tris borate pH 7.5, 40 mM KCl, 0.1 mM MnSO4, 0.1 mg/ml BSA, 10% glycerol), temperature not stated; EMSA: 100 mM Tris pH 8.0, 500 mM NaCl, 10% glycerol, 10 ng/ml salmon sperm DNA, 37 C, 30 pM DNA. As to conditions: protein: recombinant; tags: none; label: 5'-6FAM; blunt.

B1: prrF2-50 (Fur) (dsDNA)
DNA 1: ATGAGAACCGGCTTGACCTGATAATGAGAATAGTTATTATTACACCAACT
DNA 2: AGTTGGTGTAATAATAACTATTCTCATTATCAGGTCAAGCCGGTTCTCAT
For the molecule B1, in the data set with PhuS [1], the binding result was “no binding”.

B2: prrF1-30 (dsDNA)
DNA 1: GACATGGAAATGAGAATCATTATTATGTCA
DNA 2: TGACATAATAATGATTCTCATTTCCATGTC
Usually Kd stands for a measure of binding affinity in units of concentration. For the molecule B2, the values for the dissociation constant (Kd) with PhuS [2] and with Fur were over 2 µM and 0.05 ± 0.01 µM, respectively.

B3: prrF1-50 (No Fur) (dsDNA)
DNA 1: ATTCCAGAGGGCTCGCGACTAGCTAGCAGAAAAGTTTGGCGAAAGCGTTT
DNA 2: AAACGCTTTCGCCAAACTTTTCTGCTAGCTAGTCGCGAGCCCTCTGGAAT
As for B3, the binding result with PhuS [1] is recorded as “no binding”.

B4: prrF1-50 (FAM) (dsDNA)
DNA 1: AGCAGAAAAGTTTGGCGAAAGCGTTTGACATGGAAATGAGAATCATTATT
DNA 2: AATAATGATTCTCATTTCCATGTCAAACGCTTTCGCCAAACTTTTCTGCT
Regarding B4, the results for the dissociation constant (Kd) with PhuS H212R and with PhuS [1] were 0.09 ± 0.03 µM and 0.064 ± 0.01 µM, respectively.

These data come from PMC7948967, “The heme-binding protein PhuS transcriptionally regulates the Pseudomonas aeruginosa tandem sRNA prrF1,F2 locus”.
